# Source: IntAct's records for PubMed 19749176
# B1: Serine/threonine-protein phosphatase PP1-1 (Saccharomyces cerevisiae), P20604 (parent)
# chain: MVSRGPDEWLETIKKCQALTENEMKQLCEMVKELLMEESNIQPVQTPVTVCGDIHGQFHDLLELFRTAGGFPDDINYIFLGDYVDRGYYSLETFTLLMCLKVKYPAKITLVRGNHESRQITQVYGFYEECLNKYGSTTVWKYCCQVFDFLTLAAIIDGKILCVHGGLSPEIRMLDQIRVLSRAQEVPHEGGFSDLLWSDPDNVEAWQVSPRGAGWLFGSKVAREFNHVNGLNLIARAHQLVMEGFKYHFPEKDVVTVWSAPNYCYRCGNVASVMKVDEDLEPTFKIFSAVPDDYIRESTANHNNQRAGYFL
# partner: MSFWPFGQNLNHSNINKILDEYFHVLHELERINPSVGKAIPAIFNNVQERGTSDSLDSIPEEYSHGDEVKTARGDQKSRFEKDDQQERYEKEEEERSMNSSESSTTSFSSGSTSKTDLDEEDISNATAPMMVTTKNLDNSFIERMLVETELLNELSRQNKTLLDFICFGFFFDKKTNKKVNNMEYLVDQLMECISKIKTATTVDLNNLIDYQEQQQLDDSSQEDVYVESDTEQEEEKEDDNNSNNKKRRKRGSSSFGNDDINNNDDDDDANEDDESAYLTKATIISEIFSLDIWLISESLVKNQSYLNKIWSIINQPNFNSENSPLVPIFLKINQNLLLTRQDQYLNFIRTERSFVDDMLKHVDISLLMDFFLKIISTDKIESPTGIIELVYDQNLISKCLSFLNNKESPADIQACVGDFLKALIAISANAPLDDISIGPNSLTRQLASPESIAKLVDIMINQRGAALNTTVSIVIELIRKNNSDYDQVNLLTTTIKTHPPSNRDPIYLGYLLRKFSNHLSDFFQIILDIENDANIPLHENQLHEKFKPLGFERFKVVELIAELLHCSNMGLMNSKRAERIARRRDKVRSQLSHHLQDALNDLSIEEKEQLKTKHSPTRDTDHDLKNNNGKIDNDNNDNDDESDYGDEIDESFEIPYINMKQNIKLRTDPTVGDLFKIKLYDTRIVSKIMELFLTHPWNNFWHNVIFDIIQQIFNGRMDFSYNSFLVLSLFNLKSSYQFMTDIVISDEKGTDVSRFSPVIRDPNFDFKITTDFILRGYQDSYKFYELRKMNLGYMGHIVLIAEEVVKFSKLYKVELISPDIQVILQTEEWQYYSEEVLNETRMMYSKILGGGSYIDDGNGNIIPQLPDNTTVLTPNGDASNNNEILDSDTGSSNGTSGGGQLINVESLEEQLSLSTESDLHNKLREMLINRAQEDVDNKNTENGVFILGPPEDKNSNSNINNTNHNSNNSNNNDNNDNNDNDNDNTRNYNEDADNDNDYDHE
# B2: Serine/threonine-protein phosphatase PP1-1 (Saccharomyces cerevisiae), P20604 (parent)
# chain: B1 chain
# partner: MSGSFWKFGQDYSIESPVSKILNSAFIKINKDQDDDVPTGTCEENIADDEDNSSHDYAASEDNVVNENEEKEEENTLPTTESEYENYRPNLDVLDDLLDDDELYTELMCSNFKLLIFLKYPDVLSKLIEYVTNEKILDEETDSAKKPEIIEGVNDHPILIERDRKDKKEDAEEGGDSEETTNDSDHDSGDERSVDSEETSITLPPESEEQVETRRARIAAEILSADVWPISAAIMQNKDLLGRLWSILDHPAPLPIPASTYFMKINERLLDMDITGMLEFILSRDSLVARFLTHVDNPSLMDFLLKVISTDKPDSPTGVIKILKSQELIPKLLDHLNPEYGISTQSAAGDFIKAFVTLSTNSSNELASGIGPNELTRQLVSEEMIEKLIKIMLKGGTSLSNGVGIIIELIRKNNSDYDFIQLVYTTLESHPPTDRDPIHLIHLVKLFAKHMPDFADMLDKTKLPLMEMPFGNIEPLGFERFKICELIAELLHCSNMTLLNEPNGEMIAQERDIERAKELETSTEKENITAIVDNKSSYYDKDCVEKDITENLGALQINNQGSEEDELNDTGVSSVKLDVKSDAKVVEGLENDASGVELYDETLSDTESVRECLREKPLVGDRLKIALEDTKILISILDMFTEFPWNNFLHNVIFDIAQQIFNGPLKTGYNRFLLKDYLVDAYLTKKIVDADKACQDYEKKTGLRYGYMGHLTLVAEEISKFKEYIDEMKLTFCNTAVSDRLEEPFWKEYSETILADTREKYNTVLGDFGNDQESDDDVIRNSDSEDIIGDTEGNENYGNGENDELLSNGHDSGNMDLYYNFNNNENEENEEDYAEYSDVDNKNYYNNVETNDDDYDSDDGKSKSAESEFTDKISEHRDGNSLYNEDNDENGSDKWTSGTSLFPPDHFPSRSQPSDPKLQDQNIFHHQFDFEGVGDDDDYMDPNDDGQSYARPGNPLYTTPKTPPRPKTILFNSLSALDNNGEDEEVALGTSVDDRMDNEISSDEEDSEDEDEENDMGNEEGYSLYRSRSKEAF
# Variants of: B1
# Settings: with sa155_yeast SAP155, P43612
row,Variant,effect of a mutation on the interaction
1,MVSRGPDEWLETIKKCQALTENEMKQLCEMVKELLMAASNIQPVQTPVTVCGDIHGQFHDLLELFRTAGGFPDDINYIFLGDYVDRGYYSLETFTLLMCLKVKYPAKITLVRGNHESRQITQVYGFYEECLNKYGSTTVWKYCCQVFDFLTLAAIIDGKILCVHGGLSPEIRMLDQIRVLSRAQEVPHEGGFSDLLWSDPDNVEAWQVSPRGAGWLFGSKVAREFNHVNGLNLIARAHQLVMEGFKYHFPEKDVVTVWSAPNYCYRCGNVASVMKVDEDLEPTFKIFSAVPDDYIRESTANHNNQRAGYFL [E37A;E38A],decreasing interaction

# Variants of: B2
# Settings: with sa190_yeast SAP190, P36123
row,Variant,effect of a mutation on the interaction
1,MVSRGPDEWLETIKKCQALTENEMKQLCEMVKELLMAASNIQPVQTPVTVCGDIHGQFHDLLELFRTAGGFPDDINYIFLGDYVDRGYYSLETFTLLMCLKVKYPAKITLVRGNHESRQITQVYGFYEECLNKYGSTTVWKYCCQVFDFLTLAAIIDGKILCVHGGLSPEIRMLDQIRVLSRAQEVPHEGGFSDLLWSDPDNVEAWQVSPRGAGWLFGSKVAREFNHVNGLNLIARAHQLVMEGFKYHFPEKDVVTVWSAPNYCYRCGNVASVMKVDEDLEPTFKIFSAVPDDYIRESTANHNNQRAGYFL [E37A;E38A],decreasing interaction
